In the DeepSol protein solubility set:

Assay: soluble on expression in E. coli; label from the status in PepcDB or PDB records

Sequence	soluble on expression in E. coli
MKIVLIGAGNVATHLGIALQKAGCLILQVYSRTEESASALAARLSVDYTIVPDEIRRDADLYIVALKDAVLRQLAPVLVKGREQALFVHTAGSMSMDLWKGLVKRYGVLYPMQTFSKQREVDFNTVPFFIEASAPAEVELLRMVAVRLSPKVYEVTSGQRRYLHLAAVFACNFANHMYALSSHILEKQGIPFEVMLPLIDETAGKVHELSPTQAQTGPAVRYDENVISKHLEMLADEESLQELYEKISKSIHNLPLSVIQANKEGKNS	not soluble
MSIIAINENGFLDKIKGRNPLFTCVISSIETTLSIPISGVHRDVIKYTPSADVELVFYGKSLTLKTPPIDATGSPTPATITRACVELKNIKNLHIDAGAFVKPKIPFIEIDEKPTGRIEEGKAMNNSKELYMKGYLLGKNLDAELLIVGESVPGGTTTALGVLLGLGYDAEGKVSSGSINNPHELKIKVVREGLKKAGINEKSSVFDVLNAVGDKMMPVVAGLAISFAERNKPVILAGGTQMSAVLAVIKEINKKVLDKNLIAIGTTEFVLNDKKGDLKGIVEQIGNVPVLASKFYFEKAKIEGLKNYCKGSVKEGVGAGGIAVYSIVNDLEPTKIREFIENKFYEWYKE	soluble
MGHHHHHHSHMWQAISRLLSEQLGEGEIELRNELPGGEVHAAWHLRYAGHDFFVKCDERELLPGFTAEADQLELLSRSKTVTVPKVWAVGADRDYSFLVMDYLPPRPLDAHSAFILGQQIARLHQWSDQPQFGLDFDNALSTTPQPNTWQRRWSTFFAEQRIGWQLELAAEKGIAFGNIDAIVEHIQQRLASHQPQPSLLHGDLWSGNCALGPDGPYIFDPACYWGDRECDLAMLPLHTEQPPQIYDGYQSVSPLPADFLERQPVYQLYTLLNRARLFGGQHLVIAQQSLDRLLAA	soluble
MSAEEKNLIEILEEGHKVDVVKYIDYVSAPQAGAIATFSGTTRDMFEGKTVLELRYEAYVPMATRCLSSICTTARSTWDIHKIAVAHRLGPVPVGETSVLIAVSSVHRADGLDACKFLIDELKASVPIWKKEVYTNGEIWKENSEFMEKRLELAEKRDSIVKKTVVEEHRRRGCCGSKVRVEEDEEHKDITGDNKSSS	soluble
MSIDKSPREHWASHQERGSFMLMKLTAWGMRVLGRRLLTPVQYGIVLYFFVFGRRARHSIWEYQQRLADWSARPELRPSQRRVFGQFMAFAEALLDKLDVWNGRLGIEQIEIIDPALLRQSLRGARGQMLVGAHLGNLEVCRALAELGEKITMNVLVHTKHAERFNRLLGEAGATNLRLIQVSELDPAIMLQLSQRLDEGEWLAIAGDRVALHGGRNVRVDFLGQPATFPQGPWLLAGLLKCPVNLFFCLKGPKGYRVILEPFADAIEWRRSDRAQVIAHWATRYAERLGHYCLEAPQQWFNFYPFWKSDDESSS	not soluble
MSLYYINLKQERILKFIEKFGVARIEHMKRILNIKDIDNQFKILIRQRKVKLVFNDICVLDGKKELNIKMIKALDLYSYLHLNNGGIPIEWCMPQDFPFTIAFFRNSKVFDVAIINEGEETIYSSAINRGVSERVIVVLSEENQKENIKINKQIKCCTIEDGVLNFEGHHHHHH	not soluble
MSLDNDTVKVGDLVQINLPGEASLNQGFQVDRRGRINLPEIGPVFVAGYNEQQLQDVIIETLKTVYRDVNNARVFIKQQQLLVSVQGYVVKPGEYTLPAGSNIQMFVYEAGGLRAGAQLDKMIVKRGDQNIEFDYKRFLDTGDNEGHHHHHH	soluble
MSLIFILGIFYYLTQPLKSNSVVFIPQGSISQIITYLKQNKYQMSNIDKYILFFLGHPQSGWINIGTKDLNRAEFLHKLTIAKAALQTITLIPGETSVIFLEQAAKQLGLDKDILLKEFQAQAPYDEGVFLPETYKIPKGITENLLIQMLLNHAEISNKKTSEKIFGDYNPKKWHQYIIIASVIQKEAANDNEMPIVASVIYNRLKKGMKLQMDGTLNYGIYSHVKVTPQRIRQDNSFYNTYKFTGLPKEAVCNVSLAAIRAAIFPLKTDYLYFVRDKNTGVHIFSTNIDDHNKAINLQKGKEGHHHHHH	not soluble
MVILLPMVTFTMAYLIVDVPKPGDIRTNQVSTILASDGSEIAKIVPPEGNRVDVNLSQVPMHVRQAVIAAEDRNFYSNPGFSFTGFARAVKNNLFGGDLQGGSTITQQYVKNALVGSAQHGWSGLMRKAKELVIATKMSGEWSKDDVLQAYLNIIYFGRGAYGISAASKAYFDKPVEQLTVAEGALLAALIRRPSTLDPAVDPEGAHARWNWVLDGMVETKALSPNDRAAQVFPETVPPDLARAENQTKGPNGLIERQVTRELLELFNIDEQTLNTQGLVVTTTIDPQAQRAAEKAVAKYLDGQDPDMRAAVVSIDPHNGAVRAYYGGDNANGFDFAQAGLQTGSSFKVFALVAALEQGIGLGYQVDSSPLTVDGIKITNVEGEGCGTCNIAEALKMSLNTSYYRLMLKLNGGPQAVADAAHQAGIASSFPGVAHTLSEDGKGGPPNNGIVLGQYQTRVIDMASAYATLAASGIYHPPHFVQKVVSANGQVLFDASTADNTGDQRIPKAVADNVTAAMEPIAGYSRGHNLAGGRDSAAKTGTTQFGDTTANKDAWMVGYTPSLSTAVWVGTVKGDEPLVTASGAAIYGSGLPSDIWKATMDGALKGTSNETFPKPTEVGGYAGVPPPPPPPEVPPSETVIQPTVEIAPGITIPIGPPTTITLAPPPPAPPAATPTPPP	soluble
MSLGKGEKFQIEFVSANPTGDLHLGHARGAAIGDSLANIMKMAGFDVSREYYINDAGNQINNLVLSAEARYFEALGLDSEFPEDGYRGADIISLGKDLAAKYGDKYVHTSEEERRSVFRVDALAFETGKLRADLEEFRVSFDEWFSETSLYEENKVLPALERLRENGYIYEQDGATWLRTTDFEDDKDRVLIKSDGSYTYFLPDIAYHLNKLERGFDVLIDIWGADHHGYIPRMRAAIEALGYSPNQLEVEIIQLVHLFEDGVQVKMSKRTGKSVTMRDLIEEVGLDATRYFFAMRSSDTHMNFDMSLAKSTSNDNPVYYVQYAHARISSILRSGKEQGLEVTKDADMSLLQTEAEYDLLKVLGEFADVVAEAATKRAPHRIVRYLNDLASSFHRFYNSNKVLDMDNLEVTKARLALIKTAQITLRNGLTLLGVSAPEKEGHHHHHH	not soluble
MHERERHRIILSATQEKAVVTVQDIAELTDASEATIRRDIASLHVQGKLRRVRGGAEAVHPPQLGNLAARPFRVSESVNIDKKRAIARKAVDLCNDGDAIILNGGTTTFQMVHYMAARRLQVMTNSFAIAEHLVKHSKCNVNVPGGAIYRDQSLILSPFENDAIRNFYARRIFLGAQGVGALGIMESDALVIQSEQKLMRQAEELIVMVDSSKFRKRSSLILCPLENVTTIITDDGISDEAARMVENAGVELLIAGAVAAGKTAGPPDEENSSSVALEHHHHHH	not soluble
MRYPESLLKLTRALSRLPGIGPKTAQRLALHLAFHKEEAEALAEALEGIKRVRACRECGNLAEGELCPICQDEDRDRSLLAVVESVADLYALERSGEFRGLYHVLGGALNPLEGIGPKELNLEGLFRRLEGVEEVVLATSMTVEGEATALYLAEELKKRGVRVTRPAYGLPVGGSLEYADEVTLGRALEGRRPV	soluble
MRRAAIFFFYDERGQVDDYIFYLLEKLRPFVETIIFVSNGEISQSSEASLRSTVDETIIRENTGFDVGAYRDGLEFIGYDKLGDYDEILLLNHTFYGPVFPFSEMFSEMERRACDFWGISDHKEVSPNPFTGAGVLPRHLNSHFIAVRKAMLESIAFRNYWERMPKITDYAESVLLHESRFTGFFENLGYKSETYLDSDKYNSAYPVMIDVDQIYNDRSPILKRRLFFNDPTFLDKNAVDLPRALRVLKETSDYDLNLIWRNVLRSSDLRTLNTNAALMSVLPDKRIKGDGAAADYGKIAVCAHIYYTDMLDEILGLTGNIPVPYDFIATTNTPEKKAEIETALANRPGVKNVIVRVVEQNRGRDMSSLFISLRDLLVDDRYDLVCRLHTKKSPQVQSSMGNLFKRHMVDNLLNSRGYVHNVLDMFHDNPSVGLAIPPIFHISYPTMGFSWFANKPKVEETARLLNINVKFDENTPVAAYGTMFWFRPRALRKMFEHKWKWEEFNAEPDHVDGGFAHALERLIAYAVQNAGYTTQHIMCAHQAEHNYTMLEFKLQKLASFMPSGDFPLQCHMVSEWRKGGYPLGSHVSATPAPMPTSVKHSLAELNLAVKSSLRFRAPILFRALRPIYRGTRAILKPNSRRSGGLEHHHHHH	soluble
MGSDKIHHHHHHMFNLEEYTEKAQKVMMSIQDIMTRYRQNQLSSEHILLAILEEGNNVGVELLKELNVDINRLKDEVEVFIGKYGVRVPEGASVSQIFITPDARHVIEKAREEARRMGDSKIGTEHLILGMVLSPDSTAFRILSRYGVTPERVYEAIRKIRSTGKTDEAENVEALARFTVDLTQLAREKKLMPVVDREKEIRRVIQILSRRTKNNPVLIGDPGVGKTAVVEGLAQRIVEGKVPLFLRNVRVLKLDMGRLVAGTRFRGDFEERLKRLLDELKRKKGEVILFIDEVHTVVGAGAAEGALDAANIMKPELTTGEIQIIGATTVEEYRKYIEKDRALERRFQPVMVEEPTVEQTIEILKGLRKVFEEHHHVKITDDALEAAAKLSARYITNRFLPDKAVDLIDEAAAYVRLESSYPSEELLKLEEEIKNLEDKINDAVVKGEYEEAAKLKVELQKLKNEYEEKRKKQEKVEPVVDENVVAKIVEQWTGIPVSRIMESEREKLLKLEEFIHQRLVNQEEAVKIVARTIRRARVGIKNPRRPIGVFLFLGPTGVGKTELARTLADVLFGSEDAMIRLDMSEYMEKHSVARLIGAPPGYVGYEEGGQLTEAVRKRPYSVILLDEIEKAHPDVFNILLQVFEDGRLTDGKGNTVDFRNTIIIMTSNIGSEKILEMSENGVRIEIEKELRNTFKPEFLNRIDAIVYFKPLTMEEVKKIVEIMVRQLQEILKEKNISIELTERAKEYLAEAGYVPSLGARPLRRIIELELESMIADKILEGEIKEGDRVLVDADEYGLKIERR	not soluble
MGSDKIHHHHHHQIPREPITQQPMSAMPPMPPAMQAPGSIYNPGYAGRPLFEDQRPRNVGDILTIVIAENINATKSSGANTNRQGNTSFDVPTAGFLGGLFNKANLSAQGANKFAATGGASAANTFNGTITVTVTNVLPNGNLVVSGEKQMLINQGNEFVRFSGIVNPNTISGQNSVYSTQVADARIEYSAKGYINEAETMGWLQRFFLNIAPW	not soluble
MSSNAQVRPPLPPFTRESAIEKIRLAEDGWNSRDPERVSLAYTLDTQWRNRAEFAHNREEAKAFLTRKWAKELDYRLIKELWAFTDNRIAVRYAYEWHDDSGNWFRSYGNENWEFDEQGLMARRFACINDMPIKAQERKFHWPLGRRPDDHPGLSELGLLEHHHHHH	soluble
MSLAEFSADLCLFDLDGTIVSTTVAAEKAWTKLCYEYGVDPSELFKHSHGARTQEVLRRFFPKLDDTDNKGVLALEKDIAHSYLDTVSLIPGAENLLLSLDVDTETQKKLPERKWAIVTSGSPYLAFSWFETILKNVGKPKVFITGFDVKNGKPDPEGYSRARDLLRQDLQLTGKQDLKYVVFEDAPVGIKAGKAMGAITVGITSSYDKSVLFDAGADYVVCDLTQVSVVKNNENGIVIQVNNPLTRAEGHHHHHH	not soluble
MANFIDRRLNAKGKSTVNRQRFINRYKQQIKKAVSDAVTRRSVTDVDKGEKISIPTRDISEPMFHQGKGGVRDRVHPGNDQFTRGDKIDRPQGGSGGGAGKGDASDSGEGNDDFVFEISKDEYLELLFEDLELPNLQKNRLNKLVEYQIYRAGFTNDGVPANINIVRSLRSSLARRIAMSASKKKLLKESEQELAELENIPGTKAELILDLKAQIEELKRKIAKVPFIDTFDLRFNNFSRREVPSSQAVMFCLMDVSGSMDQATKDMAKRFYILLYLFLTRTYKNLEVVYIRHHTQAKEVDEHEFFYSQETGGTIVSSALKLMHEIQQARYPADEWNIYAAQASDGDNWADDSPTCKQLLEQKILPLVRYFSYIEITNRAHQTLWREYESLQQHYDNIAVQHIRQAEDIYPVFRELFKKQAVLEHHHHHH	not soluble
